These results are taken from PMC4488300.

In the experiment the target is Francisella tularensis ssp. holarctica macrophage locus protein A (MglA) (F. tularensis ssp. holarctica) (UniProt Q5NFG1). In words: cross-linking + SEC.

By stoichiometry N is commonly meant the number of molecules, sites or subunits per partner or assembly. For “Francisella tularensis ssp. holarctica macrophage locus protein A (MglA) (from UniProt Q5NFG1 1-205) (natural protein)”, the stoichiometry N was determined as 2.
